For data set [1], the target named is FadR_ec (Escherichia coli, UniProt P0A8V6 1-239). Description: EMSA.
Data set [2] deals with FadR_vc (Vibrio cholerae, UniProt Q9KQU8 1-279). The experiment in a line: EMSA. A general note: A gel shift assay detects complexes by their altered migration in electrophoresis.
FadR_vc, sequence (Q9KQU8 whole entry): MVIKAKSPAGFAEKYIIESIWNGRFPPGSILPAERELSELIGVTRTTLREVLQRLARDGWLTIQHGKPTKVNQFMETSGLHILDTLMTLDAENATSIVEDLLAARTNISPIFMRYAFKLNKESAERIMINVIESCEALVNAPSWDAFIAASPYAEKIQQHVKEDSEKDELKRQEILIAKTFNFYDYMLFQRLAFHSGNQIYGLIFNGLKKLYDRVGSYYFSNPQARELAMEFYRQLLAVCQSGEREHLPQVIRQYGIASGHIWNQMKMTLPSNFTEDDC

FadR_ec, sequence (P0A8V6 whole entry): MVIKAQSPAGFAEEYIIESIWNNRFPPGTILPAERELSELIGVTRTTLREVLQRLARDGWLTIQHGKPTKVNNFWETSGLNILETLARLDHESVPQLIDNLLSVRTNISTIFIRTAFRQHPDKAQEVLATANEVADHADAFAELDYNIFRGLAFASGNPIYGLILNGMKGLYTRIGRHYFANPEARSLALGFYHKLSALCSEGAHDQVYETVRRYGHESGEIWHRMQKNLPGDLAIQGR

B1: plsB_vc FadR site probe (39 bp) (dsDNA)
DNA 1: TTAAATTAAAAGGTTTGACCAGTTTCTGGTATTCTTGGC
DNA 2: GCCAAGAATACCAGAAACTGGTCAAACCTTTTAATTTAA
Turning to B1, the binding result in data set [1] and in data set [2] was “binds” in each case.

Source of the values: publication PMC3204382.
